Data on 13 molecules can be found in patent publication US20260139007A1 (SANFORD BURNHAM PREBYS MEDICAL DISCOVERY INSTITUTE, published 2026).

Bridge positions count the residues as written; N and C are the ends. Square brackets hold non-standard residues; d marks the D form. Side chains are listed from the residue outwards. Ends that are not written are not given here. * marks the point of attachment. Lauroyl = CCCCCCCCCCCC(=O)*; Octanoyl = CCCCCCCC(=O)*; Dodecyl = CCCCCCCCCCCC*; βAla = NCCC(=O)O

Broadly, the IC50 is the concentration at which inhibition is half-maximal.

Test [1] concerns the target FLAG-tagged EphA4 stably expressed in immortalized cells (HEK-EphA4 cells). The test can be described thus: cell-based or functional assay.
For test [2], the target named is T1, EphA4 Fc (human EphA4 Fc, #CJ75, Novoprotein, or mouse EphA4 Fc, #641-A4, R&D Systems/BioTechne) (human or mouse, UniProt P54764 20-547).
T1 construct: extracellular domain; bought reagents; also called EphA4 extracellular domain fused to the Fc portion of an antibody; not shown: Fc portion of an antibody
The test can be described thus: competition ELISA, inhibition of ephrin-A5 AP binding to immobilized EphA4 Fc. (In general: ELISA stands for enzyme-linked immunosorbent assay.)

The target of test [3] is T1, EphA4 Fc (human EphA4 Fc, #CJ75, …). In words: competition ELISA, inhibition of ephrin-A5 AP binding to immobilized EphA4 Fc, with 40 mg/mL delipidated HSA.
Test [4] shares this target. The test can be described thus: competition ELISA, ephrin-A5 AP on immobilized EphA4 Fc.
For test [5] the target is unchanged. In words: competition ELISA, ephrin-A5 AP on immobilized EphA4 Fc, same experiments.
Test [6] shares this target. In words: competition ELISA, inhibition of ephrin-A5 AP binding to immobilized EphA4 Fc; 0 time point, compound diluted in mouse plasma in vitro (apparent IC50).
The target is the same in test [7]. In words: competition ELISA, inhibition of ephrin-A5 AP binding to immobilized EphA4 Fc, with serum albumin (40 mg/mL HSA by the text; the cell has no footnote).
The target is the same in test [8]. In words: competition ELISA, ephrin-A5 AP on immobilized EphA4 Fc, with and without 20 mg/mL BSA.
Test [9] has the same target. In words: competition ELISA, inhibition of ephrin-A5 AP binding to immobilized EphA4 Fc, with 20 mg/ml BSA.

T1 sequence (P54764 20-547): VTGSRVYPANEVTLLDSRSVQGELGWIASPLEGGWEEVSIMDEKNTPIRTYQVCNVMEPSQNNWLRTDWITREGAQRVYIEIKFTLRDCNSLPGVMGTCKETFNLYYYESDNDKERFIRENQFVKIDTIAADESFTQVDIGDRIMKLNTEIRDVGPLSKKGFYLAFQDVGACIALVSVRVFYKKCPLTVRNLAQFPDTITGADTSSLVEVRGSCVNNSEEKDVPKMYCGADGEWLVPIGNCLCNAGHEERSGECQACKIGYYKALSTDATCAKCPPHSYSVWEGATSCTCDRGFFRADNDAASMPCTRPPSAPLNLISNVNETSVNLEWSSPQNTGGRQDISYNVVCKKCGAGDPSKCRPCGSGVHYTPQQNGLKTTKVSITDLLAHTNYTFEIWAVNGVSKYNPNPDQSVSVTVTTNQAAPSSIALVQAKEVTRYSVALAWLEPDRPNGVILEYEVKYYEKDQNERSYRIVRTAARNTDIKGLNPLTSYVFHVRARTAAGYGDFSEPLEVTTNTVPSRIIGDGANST

B1: APY-d3-PEG4 (peptide)
peptide: XPYCVYRXSWSCXXX
modifications: β-alanine at 1 and 8; disulfide bond Cys4-Cys12 (Cyc (4,12)); three 6-aminohexanoic acid (Ahx) residues and propargyl-glycine (Pra) after Cys12; 30 kDa methoxy-PEG on Pra through a triazole (click chemistry); free C-terminal acid (-OH)
As for B1, in test [1], the “IC50 for inhibition of EphA4 tyrosine phosphorylation (pY596) induced by ephrin-A5 Fc in HEK-EphA4 cells, ELISA of cell lysates” value is about 700 nM and the “fold loss of potency against APY-d3, EphA4 tyrosine phosphorylation in HEK-EphA4 cells” value is about 2.5 fold.

B2: compound 12 (peptide)
peptide: XPYCVYRXSWSCGGKG
modifications: β-alanine at 1 and 8; lauroyl on the side chain of the Lys of the C-terminal GGKG; C-terminal amide; disulfide bond Cys4-Cys12 (cyclic)
notes: also called peptide 12
In the case of B2, the IC50 was 240 nM in test [2] and 920 nM in test [3].

B3: compound 4 (peptide)
peptide: [βAla]PYCVYK(Octanoyl)[βAla]SWSC-NH2
modifications: disulfide 4-12; N-terminus assumed
SMILES: CCCCCCCC(=O)NCCCC[C@@H]1NC(=O)[C@H](Cc2ccc(O)cc2)NC(=O)[C@H](C(C)C)NC(=O)[C@@H](NC(=O)[C@H](Cc2ccc(O)cc2)NC(=O)[C@@H]2CCCN2C(=O)CCN)CSSC[C@@H](C(N)=O)NC(=O)[C@H](CO)NC(=O)[C@H](Cc2c[nH]c3ccccc23)NC(=O)[C@H](CO)NC(=O)CCNC1=O
notes: also called peptide 4; βAPYCVYK(octanoyl)βASWSC-NH2
On to B3, for which the values for the IC50 in [2] and in test [3] were 34 nM and 100 nM, respectively.

B4: compound 5 (peptide)
peptide: [βAla]PYCVYK(Octanoyl)[βAla]SWSCGGRG-NH2
modifications: disulfide 4-12; N-terminus assumed
SMILES: CCCCCCCC(=O)NCCCC[C@@H]1NC(=O)[C@H](Cc2ccc(O)cc2)NC(=O)[C@H](C(C)C)NC(=O)[C@@H](NC(=O)[C@H](Cc2ccc(O)cc2)NC(=O)[C@@H]2CCCN2C(=O)CCN)CSSC[C@@H](C(=O)NCC(=O)NCC(=O)N[C@@H](CCCNC(=N)N)C(=O)NCC(N)=O)NC(=O)[C@H](CO)NC(=O)[C@H](Cc2c[nH]c3ccccc23)NC(=O)[C@H](CO)NC(=O)CCNC1=O
notes: also called peptide 5
Turning to B4, the IC50 in test [2] worked out at 26 nM; in test [3] it was 75 nM.

B5: compound 8 (peptide)
peptide: [βAla]PYCVYK(Lauroyl)[βAla]SWSC-NH2
modifications: disulfide 4-12; N-terminus assumed
SMILES: CCCCCCCCCCCC(=O)NCCCC[C@@H]1NC(=O)[C@H](Cc2ccc(O)cc2)NC(=O)[C@H](C(C)C)NC(=O)[C@@H](NC(=O)[C@H](Cc2ccc(O)cc2)NC(=O)[C@@H]2CCCN2C(=O)CCN)CSSC[C@@H](C(N)=O)NC(=O)[C@H](CO)NC(=O)[C@H](Cc2c[nH]c3ccccc23)NC(=O)[C@H](CO)NC(=O)CCNC1=O
notes: also called peptide 8; βAPYCVYK(lauroyl)βASWSC-NH2
The molecule B5 registered an IC50 in test [2] of 390 nM. In addition, in test [4], the “fold decrease in potency against APY-d3 similarly modified with a C8 lipid” value was over 10 fold.

B6: compound 3 (peptide)
peptide: [βAla]PYCVYK[βAla]SWSC-NH2
modifications: disulfide 4-12; N-terminus assumed
SMILES: CC(C)[C@@H]1NC(=O)[C@@H](NC(=O)[C@H](Cc2ccc(O)cc2)NC(=O)[C@@H]2CCCN2C(=O)CCN)CSSC[C@@H](C(N)=O)NC(=O)[C@H](CO)NC(=O)[C@H](Cc2c[nH]c3ccccc23)NC(=O)[C@H](CO)NC(=O)CCNC(=O)[C@H](CCCCN)NC(=O)[C@H](Cc2ccc(O)cc2)NC1=O
notes: also called peptide 3; βAPYCVYKβASWSC-NH2
On to B6, for which the half-maximal inhibitory concentration (IC50) in [2] worked out at 70 nM. The “fold decrease in potency (IC50) against APY-d3” value in test [5] was about 2 fold.

B7: compound 9 (peptide)
peptide: [βAla]PYCVYK([Gly-Dodecyl])[βAla]SWSC-NH2
modifications: disulfide 4-12
notes: also called peptide 9; βAPYCVYK(lauryl-G)βASWSC-NH2
As to B7, the IC50 in test [2] was found to be 590 nM. In addition, the “fold decrease in potency against APY-d3 similarly modified with a C8 lipid” value in [4] was over 10 fold.

B8: compound 14 (peptide)
peptide: XPYCVYRXSWSCGGKG
modifications: β-alanine at 1 and 8; lauroyl-γ-glutamic acid on the side chain of the Lys of the C-terminal GGKG; C-terminal amide; disulfide bond Cys4-Cys12 (cyclic)
notes: also called peptide 14
B8: the IC50 in test [6] amounted to 81 nM.

B9: compound 7 (peptide)
peptide: XPYCVYRXSWSCGGKG
modifications: β-alanine at 1 and 8; octanoyl on the side chain of the Lys of the C-terminal GGKG; C-terminal amide; disulfide bond Cys4-Cys12 (cyclic)
notes: also called peptide 7
As for B9, the figures for the IC50 in test [2] and in test [3] were 34 nM and 110 nM, respectively.

B10: compound 1 (peptide)
peptide: APYCVYK[βAla]SWSC-NH2
modifications: disulfide 4-12; N-terminus assumed
SMILES: CC(C)[C@@H]1NC(=O)[C@@H](NC(=O)[C@H](Cc2ccc(O)cc2)NC(=O)[C@@H]2CCCN2C(=O)[C@H](C)N)CSSC[C@@H](C(N)=O)NC(=O)[C@H](CO)NC(=O)[C@H](Cc2c[nH]c3ccccc23)NC(=O)[C@H](CO)NC(=O)CCNC(=O)[C@H](CCCCN)NC(=O)[C@H](Cc2ccc(O)cc2)NC1=O
notes: also called peptide 1; APYCVYKβASWSC-NH2
In the case of B10, the IC50 was found to be 67 nM in test [2] and 55 nM in test [7]. Also, in test [5], the “fold decrease in potency (IC50) against APY-d2” value is about 2 fold.

B11: compound 21 (peptide)
peptide: [βAla]PYCVYR[βAla]SWSCRLIEDICLPRWGCLWEDD-NH2
modifications: disulfide 4-12, 19-25; N-terminus assumed
SMILES: CC[C@H](C)[C@H](NC(=O)[C@H](CC(C)C)NC(=O)[C@H](CCCNC(=N)N)NC(=O)[C@@H]1CSSC[C@H](NC(=O)[C@H](Cc2ccc(O)cc2)NC(=O)[C@@H]2CCCN2C(=O)CCN)C(=O)N[C@@H](C(C)C)C(=O)N[C@@H](Cc2ccc(O)cc2)C(=O)N[C@@H](CCCNC(=N)N)C(=O)NCCC(=O)N[C@@H](CO)C(=O)N[C@@H](Cc2c[nH]c3ccccc23)C(=O)N[C@@H](CO)C(=O)N1)C(=O)N[C@@H](CCC(=O)O)C(=O)N[C@@H](CC(=O)O)C(=O)N[C@H](C(=O)N[C@H]1CSSC[C@@H](C(=O)N[C@@H](CC(C)C)C(=O)N[C@@H](Cc2c[nH]c3ccccc23)C(=O)N[C@@H](CCC(=O)O)C(=O)N[C@@H](CC(=O)O)C(=O)N[C@@H](CC(=O)O)C(N)=O)NC(=O)CNC(=O)[C@H](Cc2c[nH]c3ccccc23)NC(=O)[C@H](CCCNC(=N)N)NC(=O)[C@@H]2CCCN2C(=O)[C@H](CC(C)C)NC1=O)[C@@H](C)CC
notes: also called peptide 21
Regarding B11, the IC50 in [2] stood at 18 nM; in test [9], 130 nM. Also, the “fold decrease in potency with BSA against buffer” value in [8] is about 8 fold.

B12: compound 6 (peptide)
peptide: [βAla]PYCVYK([Gly-octanyl])[βAla]SWSC-NH2
modifications: disulfide 4-12
notes: also called peptide 6; βAPYCVYK(octanyl-G)βASWSC-NH2
Turning to B12, the IC50 in test [2] was 42 nM; in [3] it was 130 nM.

B13: compound 16 (peptide)
peptide: XPYCVYRXSWSCGGKG
modifications: β-alanine at 1 and 8; myristoyl-γGlu-γGlu on the side chain of the Lys of the C-terminal GGKG; C-terminal amide; disulfide bond Cys4-Cys12 (cyclic)
notes: also called peptide 16
On to B13, for which the values for the IC50 in test [2] and in test [3] were 77 nM and 1370 nM, respectively.
